How the values were obtained:
[1] = target: T1, SARS-CoV-2 Spike RBD, Wuhan (SARS-CoV-2, UniProt P0DTC2 319-541)
[2] = target: T1, SARS-CoV-2 Spike RBD, Wuhan; remark: listed apart in the source

Row | Binder | Kd [1] | EC50 [2]
1 | VHH72 wt (VHH) VHH: QVQLQESGGGLVQAGGSLRLSCAASGRTFSEYAMGWFRQAPGKEREFVATISWSGGSTYYTDSVKGRFTISRDNAKNTVYLQMNSLKPDDTAVYYCAAAGLGTVVSEWDYDYDYWGQGTQVTVSS | 45 nM | 
2 | VHH72 NoK wt (VHH) VHH: QVQLQESGGGLVQAGGSLRLSCAASGRTFSEYAMGWFRQAPGREREFVATISWSGGSTYYTDSVRGRFTISRDNARNTVYLQMNSLRPDDTAVYYCAAAGLGTVVSEWDYDYDYWGQGTQVTVSS | 75 nM | 
3 | VHH72 G56MDCcC (VHH) VHH: QVQLQESGGGLVQAGGSLRLSCAASGRTFSEYAMGWFRQAPGKEREFVATISWSGCSTYYTDSVKGRFTISRDNAKNTVYLQMNSLKPDDTAVYYCAAAGLGTVVSEWDYDYDYWGQGTQVTVSS |  | 1.1 µM
4 | LCB3-NS (LCB3 H19aNBDC) (designed binder) MNDDELHMLMTDLVYEALCFAKDEEIKKRVFQLFELADKAYKNNDRQKLEKVVEELKELLERLLS |  | 6.4 µM

From patent US20260139001A1 (Harvard, published 2026)
